Results as given in doi:10.1101/2025.08.07.669073 (bioRxiv, 2025).
Blank lines part the entries; values can stand above or below the molecule they belong to.

Tests used:
[1] = molecular target: human ATP13A1 mutated at the border between the membrane region and the ER lumen (human) (UniProt Q9HD20); assay: co-IP
[2] = molecular target: yeast EMC with Emc5-GFP, Emc10 deleted (S. cerevisiae) (UniProt P25574); assay: co-IP
[3] = molecular target: yeast EMC with Emc5-GFP, Emc7 deleted (S. cerevisiae, UniProt P25574;P47133;P36039;P53073;P40540;Q12431;Q12025); assay: co-IP
Sequence of yeast EMC with Emc5-GFP, Emc7 deleted (P25574 25-760, stated change not applied, chain 1 of 4): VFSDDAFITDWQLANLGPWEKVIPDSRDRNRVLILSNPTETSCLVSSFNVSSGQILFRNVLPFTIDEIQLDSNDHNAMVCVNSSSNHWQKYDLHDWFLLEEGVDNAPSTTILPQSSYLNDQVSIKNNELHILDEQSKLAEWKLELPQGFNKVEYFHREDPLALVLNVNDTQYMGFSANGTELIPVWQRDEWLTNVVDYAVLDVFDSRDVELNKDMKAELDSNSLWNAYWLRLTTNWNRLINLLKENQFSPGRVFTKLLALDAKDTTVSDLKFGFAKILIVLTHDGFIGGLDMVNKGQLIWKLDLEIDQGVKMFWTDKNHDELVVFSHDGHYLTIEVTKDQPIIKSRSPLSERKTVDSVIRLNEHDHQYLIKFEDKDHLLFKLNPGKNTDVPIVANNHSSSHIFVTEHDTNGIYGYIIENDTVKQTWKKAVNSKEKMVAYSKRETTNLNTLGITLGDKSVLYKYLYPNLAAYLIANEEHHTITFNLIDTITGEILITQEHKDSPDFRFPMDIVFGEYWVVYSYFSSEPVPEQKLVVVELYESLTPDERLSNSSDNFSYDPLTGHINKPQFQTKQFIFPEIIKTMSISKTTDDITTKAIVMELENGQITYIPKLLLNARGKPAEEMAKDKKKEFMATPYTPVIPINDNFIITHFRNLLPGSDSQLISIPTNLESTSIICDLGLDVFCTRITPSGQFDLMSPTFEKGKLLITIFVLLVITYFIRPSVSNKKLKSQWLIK
Sequence of yeast EMC with Emc5-GFP, Emc7 deleted (P47133 whole entry, stated change not applied, chain 2 of 4): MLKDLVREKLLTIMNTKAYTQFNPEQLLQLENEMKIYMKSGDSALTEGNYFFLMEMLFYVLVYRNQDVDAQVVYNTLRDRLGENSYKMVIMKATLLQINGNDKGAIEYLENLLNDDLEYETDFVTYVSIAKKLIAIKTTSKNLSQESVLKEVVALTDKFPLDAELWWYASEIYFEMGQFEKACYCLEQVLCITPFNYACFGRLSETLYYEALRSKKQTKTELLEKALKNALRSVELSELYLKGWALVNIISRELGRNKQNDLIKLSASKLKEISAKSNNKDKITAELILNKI
Sequence of yeast EMC with Emc5-GFP, Emc7 deleted (P40540 whole entry, stated change not applied, chain 5 of 4): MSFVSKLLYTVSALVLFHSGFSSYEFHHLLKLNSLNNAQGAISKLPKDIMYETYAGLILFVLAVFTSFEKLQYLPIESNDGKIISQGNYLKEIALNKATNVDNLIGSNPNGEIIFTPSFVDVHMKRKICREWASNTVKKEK
Sequence of yeast EMC with Emc5-GFP, Emc7 deleted (Q12431 whole entry, stated change not applied, chain 6 of 4): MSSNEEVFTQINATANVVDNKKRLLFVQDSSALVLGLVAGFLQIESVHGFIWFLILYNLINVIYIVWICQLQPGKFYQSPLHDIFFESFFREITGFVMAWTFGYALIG

[4] = molecular target: yeast EMC with Emc5-TSII, recombinant from insect cells (S. cerevisiae) (UniProt P25574); assay: co-IP
[5] = molecular target: T1, yeast Spf1-FLAG, recombinant from insect cells (S. cerevisiae, UniProt P39986); assay: cryo-EM structure
T1 sequence: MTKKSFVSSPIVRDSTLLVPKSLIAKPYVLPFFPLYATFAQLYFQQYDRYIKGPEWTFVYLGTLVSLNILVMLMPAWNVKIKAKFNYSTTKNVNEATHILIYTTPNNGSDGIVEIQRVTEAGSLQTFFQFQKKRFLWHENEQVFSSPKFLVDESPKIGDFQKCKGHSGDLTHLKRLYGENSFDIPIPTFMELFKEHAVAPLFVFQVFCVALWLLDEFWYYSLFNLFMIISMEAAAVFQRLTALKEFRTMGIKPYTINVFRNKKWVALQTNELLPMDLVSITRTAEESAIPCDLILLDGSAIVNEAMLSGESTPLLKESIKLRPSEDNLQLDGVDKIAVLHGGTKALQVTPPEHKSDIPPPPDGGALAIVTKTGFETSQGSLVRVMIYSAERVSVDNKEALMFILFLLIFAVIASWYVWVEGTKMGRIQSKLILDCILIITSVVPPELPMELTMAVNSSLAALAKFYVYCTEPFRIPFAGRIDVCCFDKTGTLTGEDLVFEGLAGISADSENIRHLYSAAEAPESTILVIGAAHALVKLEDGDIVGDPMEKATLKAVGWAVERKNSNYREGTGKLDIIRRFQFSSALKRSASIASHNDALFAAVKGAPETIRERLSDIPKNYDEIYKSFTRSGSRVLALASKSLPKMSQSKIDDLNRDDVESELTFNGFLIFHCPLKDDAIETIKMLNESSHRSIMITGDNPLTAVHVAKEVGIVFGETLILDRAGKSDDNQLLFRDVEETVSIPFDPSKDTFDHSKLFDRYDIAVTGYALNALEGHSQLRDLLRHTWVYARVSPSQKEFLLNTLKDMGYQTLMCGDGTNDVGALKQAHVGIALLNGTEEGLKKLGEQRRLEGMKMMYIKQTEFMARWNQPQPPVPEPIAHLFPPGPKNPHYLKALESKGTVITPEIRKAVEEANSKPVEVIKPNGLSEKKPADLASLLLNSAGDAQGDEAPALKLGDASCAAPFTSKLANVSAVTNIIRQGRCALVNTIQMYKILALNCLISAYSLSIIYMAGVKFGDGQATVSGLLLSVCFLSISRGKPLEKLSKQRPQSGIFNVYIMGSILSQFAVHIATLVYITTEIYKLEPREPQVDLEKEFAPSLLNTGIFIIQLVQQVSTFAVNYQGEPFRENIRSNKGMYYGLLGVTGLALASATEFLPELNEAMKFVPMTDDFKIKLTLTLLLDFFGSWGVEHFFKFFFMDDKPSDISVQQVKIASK

Sequence of human ATP13A1 mutated at the border between the membrane region and the ER lumen (human) (Q9HD20 whole entry, stated change not applied): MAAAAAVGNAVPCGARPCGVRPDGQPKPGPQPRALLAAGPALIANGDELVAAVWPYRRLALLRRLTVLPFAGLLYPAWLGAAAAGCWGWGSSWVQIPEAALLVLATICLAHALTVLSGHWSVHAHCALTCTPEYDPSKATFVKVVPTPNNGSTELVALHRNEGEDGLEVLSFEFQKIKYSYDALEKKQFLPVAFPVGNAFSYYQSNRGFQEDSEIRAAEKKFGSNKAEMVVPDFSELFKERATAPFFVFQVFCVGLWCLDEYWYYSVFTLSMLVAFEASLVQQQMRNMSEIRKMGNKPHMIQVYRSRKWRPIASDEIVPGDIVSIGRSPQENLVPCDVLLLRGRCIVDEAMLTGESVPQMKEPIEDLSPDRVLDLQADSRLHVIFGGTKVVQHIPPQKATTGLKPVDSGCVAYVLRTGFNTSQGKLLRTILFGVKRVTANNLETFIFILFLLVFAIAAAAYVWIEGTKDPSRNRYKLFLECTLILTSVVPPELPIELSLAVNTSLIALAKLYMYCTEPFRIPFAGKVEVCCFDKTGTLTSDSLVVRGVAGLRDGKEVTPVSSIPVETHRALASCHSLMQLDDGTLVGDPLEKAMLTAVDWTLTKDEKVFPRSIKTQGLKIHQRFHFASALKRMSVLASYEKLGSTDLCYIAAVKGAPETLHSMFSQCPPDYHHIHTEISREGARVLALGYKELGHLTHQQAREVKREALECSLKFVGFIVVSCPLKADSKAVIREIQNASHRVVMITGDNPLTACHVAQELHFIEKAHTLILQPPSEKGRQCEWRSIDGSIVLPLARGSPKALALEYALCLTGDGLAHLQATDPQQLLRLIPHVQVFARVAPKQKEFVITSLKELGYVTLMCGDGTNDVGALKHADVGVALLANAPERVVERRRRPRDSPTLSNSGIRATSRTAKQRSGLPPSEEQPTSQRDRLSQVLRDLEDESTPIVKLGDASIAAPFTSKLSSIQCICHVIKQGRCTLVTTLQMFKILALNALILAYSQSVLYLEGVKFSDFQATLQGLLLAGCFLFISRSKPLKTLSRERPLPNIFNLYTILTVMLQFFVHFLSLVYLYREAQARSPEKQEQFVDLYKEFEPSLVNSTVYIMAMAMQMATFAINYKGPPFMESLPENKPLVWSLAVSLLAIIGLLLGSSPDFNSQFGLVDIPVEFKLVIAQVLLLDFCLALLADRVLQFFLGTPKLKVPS

interaction with the hEMC relative to wt [1]: 0.5 of wt
Molecule: human EMC, endogenous, HEK293T (from UniProt Q8N766;Q15006;Q9P0I2;Q5J8M3;Q8N4V1;Q9BV81;Q9NPA0;O43402;Q5UCC4) (complex)

EMC:Spf1 interaction, percent of wt [4]: 30%
B2: yeast Spf1 E1087A, recombinant from insect cells (natural protein)
chain: MTKKSFVSSPIVRDSTLLVPKSLIAKPYVLPFFPLYATFAQLYFQQYDRYIKGPEWTFVYLGTLVSLNILVMLMPAWNVKIKAKFNYSTTKNVNEATHILIYTTPNNGSDGIVEIQRVTEAGSLQTFFQFQKKRFLWHENEQVFSSPKFLVDESPKIGDFQKCKGHSGDLTHLKRLYGENSFDIPIPTFMELFKEHAVAPLFVFQVFCVALWLLDEFWYYSLFNLFMIISMEAAAVFQRLTALKEFRTMGIKPYTINVFRNKKWVALQTNELLPMDLVSITRTAEESAIPCDLILLDGSAIVNEAMLSGESTPLLKESIKLRPSEDNLQLDGVDKIAVLHGGTKALQVTPPEHKSDIPPPPDGGALAIVTKTGFETSQGSLVRVMIYSAERVSVDNKEALMFILFLLIFAVIASWYVWVEGTKMGRIQSKLILDCILIITSVVPPELPMELTMAVNSSLAALAKFYVYCTEPFRIPFAGRIDVCCFDKTGTLTGEDLVFEGLAGISADSENIRHLYSAAEAPESTILVIGAAHALVKLEDGDIVGDPMEKATLKAVGWAVERKNSNYREGTGKLDIIRRFQFSSALKRSASIASHNDALFAAVKGAPETIRERLSDIPKNYDEIYKSFTRSGSRVLALASKSLPKMSQSKIDDLNRDDVESELTFNGFLIFHCPLKDDAIETIKMLNESSHRSIMITGDNPLTAVHVAKEVGIVFGETLILDRAGKSDDNQLLFRDVEETVSIPFDPSKDTFDHSKLFDRYDIAVTGYALNALEGHSQLRDLLRHTWVYARVSPSQKEFLLNTLKDMGYQTLMCGDGTNDVGALKQAHVGIALLNGTEEGLKKLGEQRRLEGMKMMYIKQTEFMARWNQPQPPVPEPIAHLFPPGPKNPHYLKALESKGTVITPEIRKAVEEANSKPVEVIKPNGLSEKKPADLASLLLNSAGDAQGDEAPALKLGDASCAAPFTSKLANVSAVTNIIRQGRCALVNTIQMYKILALNCLISAYSLSIIYMAGVKFGDGQATVSGLLLSVCFLSISRGKPLEKLSKQRPQSGIFNVYIMGSILSQFAVHIATLVYITTEIYKLEPRAPQVDLEKEFAPSLLNTGIFIIQLVQQVSTFAVNYQGEPFRENIRSNKGMYYGLLGVTGLALASATEFLPELNEAMKFVPMTDDFKIKLTLTLLLDFFGSWGVEHFFKFFFMDDKPSDISVQQVKIASK

binding result [5]: binds
B5: yeast Emc10, subunit in the recombinant EMC:Spf1 complex (natural protein)
chain: ADILQLSYSDDAKDAIPLGTFEIDSTSDGNVTVTTVNIQDVEVSGEYCLNAQIEGKLDMPCFSYMKLRTPLKYDLIVDVDEDNEVKQVSLSYDETNDAITATVRYPEAGPTAPVTKLKKKTKTYADKKASKNKDGSTAQFEEDEEVKEVSWFQKNWKMLLLGLLIYNFVAGSAKKQQQGGAGADQKTE

Continued, molecule first:

B1: Spf1 with C-terminal triple HA-tag, endogenous locus, S. cerevisiae (natural protein)
chain: MTKKSFVSSPIVRDSTLLVPKSLIAKPYVLPFFPLYATFAQLYFQQYDRYIKGPEWTFVYLGTLVSLNILVMLMPAWNVKIKAKFNYSTTKNVNEATHILIYTTPNNGSDGIVEIQRVTEAGSLQTFFQFQKKRFLWHENEQVFSSPKFLVDESPKIGDFQKCKGHSGDLTHLKRLYGENSFDIPIPTFMELFKEHAVAPLFVFQVFCVALWLLDEFWYYSLFNLFMIISMEAAAVFQRLTALKEFRTMGIKPYTINVFRNKKWVALQTNELLPMDLVSITRTAEESAIPCDLILLDGSAIVNEAMLSGESTPLLKESIKLRPSEDNLQLDGVDKIAVLHGGTKALQVTPPEHKSDIPPPPDGGALAIVTKTGFETSQGSLVRVMIYSAERVSVDNKEALMFILFLLIFAVIASWYVWVEGTKMGRIQSKLILDCILIITSVVPPELPMELTMAVNSSLAALAKFYVYCTEPFRIPFAGRIDVCCFDKTGTLTGEDLVFEGLAGISADSENIRHLYSAAEAPESTILVIGAAHALVKLEDGDIVGDPMEKATLKAVGWAVERKNSNYREGTGKLDIIRRFQFSSALKRSASIASHNDALFAAVKGAPETIRERLSDIPKNYDEIYKSFTRSGSRVLALASKSLPKMSQSKIDDLNRDDVESELTFNGFLIFHCPLKDDAIETIKMLNESSHRSIMITGDNPLTAVHVAKEVGIVFGETLILDRAGKSDDNQLLFRDVEETVSIPFDPSKDTFDHSKLFDRYDIAVTGYALNALEGHSQLRDLLRHTWVYARVSPSQKEFLLNTLKDMGYQTLMCGDGTNDVGALKQAHVGIALLNGTEEGLKKLGEQRRLEGMKMMYIKQTEFMARWNQPQPPVPEPIAHLFPPGPKNPHYLKALESKGTVITPEIRKAVEEANSKPVEVIKPNGLSEKKPADLASLLLNSAGDAQGDEAPALKLGDASCAAPFTSKLANVSAVTNIIRQGRCALVNTIQMYKILALNCLISAYSLSIIYMAGVKFGDGQATVSGLLLSVCFLSISRGKPLEKLSKQRPQSGIFNVYIMGSILSQFAVHIATLVYITTEIYKLEPREPQVDLEKEFAPSLLNTGIFIIQLVQQVSTFAVNYQGEPFRENIRSNKGMYYGLLGVTGLALASATEFLPELNEAMKFVPMTDDFKIKLTLTLLLDFFGSWGVEHFFKFFFMDDKPSDISVQQVKIASK
Spf1 to Emc5 ratio in the IP, percent of wt [2]: 48%
Spf1 to Emc5 ratio in the IP, percent of wt [3]: 40%

B3: yeast Emc3, subunit in the recombinant EMC:Spf1 complex (natural protein)
chain: MLLDDQLKYWVLLPISIVMVLTGVLKQYIMTLITGSSANEAQPRVKLTEWQYLQWAQLLIGNGGNLSSDAFAAKKEFLVKDLTEERHLAKAKQQDGSQAGEVPNPFNDPSMSNAMMNMAKGNMASFIPQTIIMWWVNHFFAGFILMQLPFPLTAKFKEMLQTGIICQDLDVRWVSSISWYFISVLGLNPVYNLIGLNDQDMGIQAGIGGPQGPQGPPQSQVDKAMHAMANDLTIIQHETCLDNVEQRVLKQYM
binding result [5]: binds

B4: yeast Emc4, subunit in the recombinant EMC:Spf1 complex (natural protein)
chain: MSEQEPYEWAKHLLDTKYIEKYNIQNSNTLPSPPGFEGNSSKGNVTRKQQDATSQTTSLAQKNQITVLQVQKAWQIALQPAKSIPMNIFMSYMSGTSLQIIPIMTALMLLSGPIKAIFSTRSAFKPVLGNKATQSQVQTAMFMYIVFQGVLMYIGYRKLNSMGLIPNAKGDWLPWERIAHYNNGLQWFSD
binding result [5]: binds
